Assay results reported in publication PMC10682464, “The structural basis for light acclimation in phycobilisome light harvesting systems systems in Porphyridium purpureum” (Communications Biology, 2023).
One block for each binder: values may come before it.

Experiments:
[1] = molecular target: T1, phycoerythrin (PE) β subunit of the Porphyridium purpureum phycobilisome (Porphyridium purpureum (endogenous in …, UniProt P11393 1-177, covalently attached open tetrapyrrole chromophores (sites not given))); experiment: cryo-EM structure; intact ML-PBS isolated from P. purpureum on a sucrose gradient; 1.5 mg/mL, diluted on the grid with 50 mM Tris pH 8.0, 16 °C; overall resolution 3.04 Å, C2 symmetry; settings: both partners purified
T1 construct: phycoerythrin beta subunit, Porphyridium purpureum (UTEX 2757); chain of the ML-PBS model PDB 7EZX, which was built from LL-PBS PDB 6KGX; also called β^PE; PE subunit

[2] = molecular target: the molecule itself; experiment: as above

binding result [1]: binds
B1: phycoerythrin (PE) α subunit of the Porphyridium purpureum phycobilisome (natural protein, UniProt P11392 1-164, looked up)
chain: MKSVITTVVSAADAAGRFPSNSDLESIQGNIQRSAARLEAAEKLAGNHEAVVKEAGDACFAKYAYLKNPGEAGENQEKINKCYRDVDHYMRLVNYDLVVGGTGPLDEWGIAGAREVYRTLNLPTSAYVASIAYTRDRLCVPRDMSAQAGVEFSAYLDYLINALS
modifications: covalently attached open tetrapyrrole chromophores (sites not given)
notes: phycoerythrin alpha subunit, Porphyridium purpureum (UTEX 2757); chain of the ML-PBS model PDB 7EZX, which was built from LL-PBS PDB 6KGX; also called α^PE; PE subunit

B2: αβ^PE monomer (phycoerythrin α and β subunits) of the Porphyridium purpureum phycobilisome (complex)
chain 1: B1 chain
chain 2: MLDAFSRVVVNSDAKAAYVGGSDLQALKSFIADGNKRLDAVNSIVSNASCMVSDAVSGMICENPGLISPGGNCYTNRRMAACLRDGEIILRYVSYALLAGDASVLEDRCLNGLKETYIALGVPTNSSIRAVSIMKAQAVAFITNTATERKMSFAAGDCTSLASEVASYFDRVGAAIS
modifications: covalently attached open tetrapyrrole chromophores (sites not given) | covalently attached open tetrapyrrole chromophores (sites not given)
notes: phycoerythrin alpha subunit, Porphyridium purpureum; as the chain of m1; phycoerythrin beta subunit, Porphyridium purpureum; as the chain of m2; The introduction says that (αβ) monomers assemble into trimers and hexamers; also called (αβ) monomer
stoichiometry N [2]: 6
